Data on 131 substances can be found in the supplement of paper PMC12042874.

± gives the uncertainty stated by the source.

This series can be described thus: amyloid nucleation score (Sup35N fusion, yeast selection) (log enrichment); library NNK3; higher = more nucleation; inactive = no reads after selection. Summed up: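 Using DiMSum, nucleation scores were taken as the log enrichment of output over input reads, centred on the mode score of non-aggregating sequences. The input and output reads came from Illumina sequencing of plasmid inserts, with sequences under 100 input reads excluded. The yeast were psi-negative, expressed Sup35N fused to peptides of 20 random codons, were induced with 100 μM copper sulfate for 24 hours, and were grown 7 days at 30°C on medium lacking adenine and uracil.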
Regarding SMLSMLTLRSLSLTFMKRNQ, the amyloid nucleation score worked out at 0.626 ± 0.32.

In the case of RQCMKRLWDSCYKKAWIKYV, the amyloid nucleation score entry was “inactive”.

RHGEIYAHYKMFVCRLDEVR: the amyloid nucleation score result was “inactive”.

For CEHCMYNRKPR, the amyloid nucleation score entry was “inactive”.

In the case of SFLFA, the amyloid nucleation score result is “inactive”.

Regarding DVVLTNVFDCML, the amyloid nucleation score entry was “inactive”.

In the case of TRMSGRHLCVITACLLTLNC, the amyloid nucleation score amounted to 0.576 ± 0.15.

For the substance MYCSTYTVFYYAGIRVLCGD, the amyloid nucleation score turned out to be 1.28 ± 0.14.

For MSIYLQSTM, the amyloid nucleation score result was “inactive”.

As to RLTGCRWDSPVTKVNIRWVY, the amyloid nucleation score result is “inactive”.

For IPEYYKIRWRYGACRSCIVI, the amyloid nucleation score result is “inactive”.

As for TGYYWFLFWNMWDWHVCGSS, the amyloid nucleation score entry was “inactive”.

In turn, CYFVSVKLLTGVKLSHKYL yielded an amyloid nucleation score of 1.25 ± 0.15.

Regarding NIFWP, the amyloid nucleation score entry was “inactive”.

For FIMRSSSC, the amyloid nucleation score result was “inactive”.

Regarding DLSVYYVLLFVCDGL, the amyloid nucleation score was -1.35 ± 1.8.

SISVNVCRWTRCLGTQLLSV: the amyloid nucleation score result is “inactive”.

DRELSFLPGYYLYARVRHKS: the amyloid nucleation score result is “inactive”.

Turning to WIIEGSRLRC, the amyloid nucleation score result is “inactive”.

As to TYEVPGPPSQRSLSY, the amyloid nucleation score entry was “inactive”.

With ISNVIMWNWGLDFTNYYSDS, the amyloid nucleation score is 1.45 ± 0.093.

For the substance RDFAR, the amyloid nucleation score result is “inactive”.

Consider FRRFSGTGFIMSEIAYFFSI, for which the amyloid nucleation score entry is “inactive”.

For the substance GDNSLTYMSAM, the amyloid nucleation score entry was “inactive”.

YVSCK: the amyloid nucleation score result was “inactive”.

For ILLKNFGYEHAAKLNTMKMI, the amyloid nucleation score result is “inactive”.

Regarding GTFVFTYMWFNIYRQNDFRN, the amyloid nucleation score result is “inactive”.

As for HPSTSTYRQRLPNCY, the amyloid nucleation score result was “inactive”.

Consider WHSKWVWNHNWLGSINCRYE, for which the amyloid nucleation score entry is “inactive”.

Turning to LCLHERCDALSFDDNPYSTR, the amyloid nucleation score result is “inactive”.

Consider RVFEVEKLVEIGGTMLHESN, for which the amyloid nucleation score result was “inactive”.

For SFYYLVKLYSLSSSIRLFRS, the amyloid nucleation score entry was “inactive”.

As for WGRGLRPTLVGMFARAHRGA, the amyloid nucleation score entry is “inactive”.

As to QIMILVCCQTGFWSERARRG, the amyloid nucleation score was 2.98 ± 0.058.

LIHFV: the amyloid nucleation score entry was “inactive”.

Take WGGSVRYKVSRICLGQCERE: the amyloid nucleation score entry is “inactive”.

For the substance KSQYTSASP, the amyloid nucleation score result is “inactive”.

In the case of GYGVCNNDKCVQDAPGQPVS, the amyloid nucleation score was -0.357 ± 1.1.

VWGYSMYVLQIWERYSSNV came in with an amyloid nucleation score of 1.01 ± 0.13.

For FTQYFLTRCDYYVEYYMLDR, the amyloid nucleation score entry is “inactive”.

As for ARMVVVLKRFCGVCMMSLFL, the amyloid nucleation score result is “inactive”.

With QLYVTPYLRDVWYDQASSYE, the amyloid nucleation score result is “inactive”.

YAFKVCS: the amyloid nucleation score entry was “inactive”.

Regarding MQAQRKYMSMRNRYQVAKVE, the amyloid nucleation score result is “inactive”.

Take STYAPWSMHHFLDLYMSNRS: the amyloid nucleation score result is “inactive”.

Take KYMGAVFYIIHRTEERYF: the amyloid nucleation score came to 0.874 ± 0.13.

For the substance FTVCFVLPIAITPMMWDIWY, the amyloid nucleation score result is “inactive”.

As to HSTGFPCLLVKITGLRHRLG, the amyloid nucleation score result is “inactive”.

HLVMGWLTKPSSIFGLEDKR came in with an amyloid nucleation score of 1.13 ± 0.11.

For the substance NLMWL, the amyloid nucleation score result was “inactive”.

Consider FRNVGMLGSNLGFGINNDIN, for which the amyloid nucleation score entry is “inactive”.

On to YSQLRARMKCVYLGY, for which the amyloid nucleation score result is “inactive”.

Take LGPAVELGMT: the amyloid nucleation score entry is “inactive”.

As for TVSYSQPVWSMDFIVGYLGV, the amyloid nucleation score result is “inactive”.

SFMVIIYAVERVIVGITGKS registered an amyloid nucleation score of 0.611 ± 0.16.

For TGQLSSQPIIQISREPIAFT, the amyloid nucleation score result is “inactive”.

As for SDRSA, the amyloid nucleation score result was “inactive”.

Turning to HVSGVIYVVGNN, the amyloid nucleation score result was “inactive”.

Turning to RRSRCVRSVYRFRMSRARPP, the amyloid nucleation score entry is “inactive”.

As to RSLAEGFYGAVPEGSVRFRN, the amyloid nucleation score result was “inactive”.

In the case of VGTPCSYSWLAAPV, the amyloid nucleation score result is “inactive”.

As for KVIDGVDAMWCMKVFWV, the amyloid nucleation score entry was “inactive”.

AVSSSLNWLGFVRISGSRY: the amyloid nucleation score is -0.432 ± 1.

For the substance NLFLGCQN, the amyloid nucleation score result is “inactive”.

The substance VVVCNRIVNSSEFRCSYTRK had an amyloid nucleation score of 1.73 ± 0.09.

With ATDNVCVI, the amyloid nucleation score result was “inactive”.

In the case of LEGSKKSDSSLARSWYFFET, the amyloid nucleation score entry is “inactive”.

As to LAFADRITGYGWSGTVRMMW, the amyloid nucleation score entry is “inactive”.

As to WWADA, the amyloid nucleation score result is “inactive”.

With TCVNLIMKIECFLYYGFLCP, the amyloid nucleation score result was “inactive”.

In the case of PSRIGSDFSRFLSEECGQLR, the amyloid nucleation score entry is “inactive”.

In the case of RIVNS, the amyloid nucleation score entry was “inactive”.

Take SGSSVPSLYCVDYAVDG: the amyloid nucleation score result is “inactive”.

TSRLFHKFLGYAPSRTNSSL: the amyloid nucleation score entry was “inactive”.

As to NCCNPCFVNLQSR, the amyloid nucleation score is 2.66 ± 0.066.

Consider FIWQMGNNPVVVAFSCRAGW, for which the amyloid nucleation score is 2.56 ± 0.076.

WRGYPFAPVFYLI: the amyloid nucleation score entry was “inactive”.

With VWNVQSFQ, the amyloid nucleation score result was “inactive”.

FRYPYNPVIREFCTCSSWFL: the amyloid nucleation score was determined as 1.73 ± 0.069.

For GGKLSRNI, the amyloid nucleation score result was “inactive”.

Regarding VYVSYGTFWMSKVWWCDKPG, the amyloid nucleation score entry is “inactive”.

Consider SKESISLECIHRVWFCGTGL, for which the amyloid nucleation score worked out at 0.185 ± 0.38.

LEGLMANVMRGFRSVVPATW: the amyloid nucleation score entry is “inactive”.

For RTGSHEMLIICFCVTSVL, the amyloid nucleation score entry was “inactive”.

On to HNLMYDRYP, for which the amyloid nucleation score entry was “inactive”.

For WKTRHRVEVWASFLLSYQTG, the amyloid nucleation score was -0.551 ± 0.62.

In turn, RRLTGFMQVVRKNWVLGELA returned an amyloid nucleation score of 1.04 ± 0.21.

Turning to TDVISRMMRGGQVLCMCKQC, the amyloid nucleation score entry is “inactive”.

On to RNGRKYSIWLVGVSH, for which the amyloid nucleation score result is “inactive”.

In the case of NLFLRFIVTLWDRFCPYFYQ, the amyloid nucleation score entry is “inactive”.

RTIFFFLDSMLIYSRAVCRL: the amyloid nucleation score result was “inactive”.

Regarding MFSCWYIISWCIEVHDGVKI, the amyloid nucleation score result is “inactive”.

Turning to CHLCGMYSVCFLARSRLVLE, the amyloid nucleation score was found to be 0.067 ± 0.77.

Turning to CTSLRLESPDFFSKRERSSN, the amyloid nucleation score entry is “inactive”.

With EHLQRGSHLFSFSRSEI, the amyloid nucleation score result is “inactive”.

LGRLVG: the amyloid nucleation score result was “inactive”.

For FSPMYFNWMIGVVCSGIVGN, the amyloid nucleation score is -0.349 ± 0.8.

SVMSLDVVMVVRYFY: the amyloid nucleation score was 0.999 ± 0.12.

As to WVTYWASRVFE, the amyloid nucleation score result is “inactive”.

ESSMFARDTLWMSFVRTMHS: the amyloid nucleation score result was “inactive”.

IITTHSFQTDWHISEYQDIC: the amyloid nucleation score result was “inactive”.

As for LLSIAVVDVPSRLSRCITLL, the amyloid nucleation score entry was “inactive”.

VALAGNYCSANVVHCMFLNL: the amyloid nucleation score result is “inactive”.

Regarding LLHHFFAVFDSARETKWDWD, the amyloid nucleation score was 0.247 ± 0.34.

In the case of ECELPNAPTCEICKIDSRLG, the amyloid nucleation score entry is “inactive”.

As for LVYPSFLLFKSIASHDSTGD, the amyloid nucleation score entry was “inactive”.

Consider VCLMNVSLRRSSFGATTVLA, for which the amyloid nucleation score result is “inactive”.

Regarding PFKFFW, the amyloid nucleation score result was “inactive”.

On to AVLHMSCNWDKQFYNLLCFC, for which the amyloid nucleation score result is “inactive”.

As for YPNMWLDEYRMVFAYYLPCG, the amyloid nucleation score entry was “inactive”.

In the case of VFRMCVYIDLVSLDSYYDVL, the amyloid nucleation score entry is “inactive”.

Regarding AIFTFVPLSPTRTHGWDHCR, the amyloid nucleation score entry is “inactive”.

Turning to NCINVYGNTNLLRGPVGTSG, the amyloid nucleation score entry is “inactive”.

As to DVFRRFAGRTLQLSPWDTTL, the amyloid nucleation score result was “inactive”.

Consider VSVEFRSDSARWGNDVCEET, for which the amyloid nucleation score result was “inactive”.

VYDDSTIDT: the amyloid nucleation score result is “inactive”.

As to NRYIGNIYEKNGNSNFKPSI, the amyloid nucleation score entry is “inactive”.

Regarding RSDCNGSSKYLISDHFP, the amyloid nucleation score result was “inactive”.

The substance GNVDVAHCDWCKGSTCMLN yielded an amyloid nucleation score of 2.64 ± 0.084.

For the substance LCYAWRSGSNTYMHMMNWSM, the amyloid nucleation score entry is “inactive”.

In the case of VHGYAAFLRRWWEQMNFSVR, the amyloid nucleation score entry was “inactive”.

For LCRKPFDVGLGRV, the amyloid nucleation score result was “inactive”.

Substance KSPVWIQIPLMCFLLEFVLG registered an amyloid nucleation score of 0.471 ± 0.2.

Take TWQFSGYWCSLYMSA: the amyloid nucleation score worked out at 1.67 ± 0.12.

Regarding ACANYCGSFSTTTAEYDVPS, the amyloid nucleation score entry was “inactive”.

TKAYGCIHTDRRDSQLKFSA: the amyloid nucleation score entry is “inactive”.

For the substance LSNVVGRATGKRTTSYHEDA, the amyloid nucleation score worked out at 0.43 ± 0.17.

With WCFWNSC, the amyloid nucleation score entry was “inactive”.

For GYTDRLVLNRKGGQYGGFEN, the amyloid nucleation score entry is “inactive”.

Regarding SYSSGSSNNKS, the amyloid nucleation score entry was “inactive”.

As for YGCRINLIDRYALKYCVTED, the amyloid nucleation score entry was “inactive”.
